Source: patent publication US4133804A, “Polypeptide possessing thymic activity” (Institut National de la Sante et de la Recherche Medicale …, priority 1976, dated 1979)
Values after ≈ are worked out from the molar mass of the structure shown. Non-standard residues stand in square brackets, D forms with d. No end group written: not given here. pGlu = O=C1CC[C@@H](C(=O)O)N1

Tests used:
[1] = tested on: spleen rosette forming cells (RFC); experiment: cells; settings: Mus musculus, read-out: AZ minimal concentration inhibiting 50 percent spleen rosette forming cells
Description: At the end of the incubation, 12 × 10^6 sheep red blood cells (SRBC) are added to the cells in the test sample. The cells in the sample are centrifuged for 6 minutes at 200 g. and carefully and gently resuspended by rotation on a roller (10 cm. diameter) at low speed (10 rev./min.). RFC are counted in a haematocytometer. In the absence of thymic activity, the number of RFC is 1210/10^6 cells ± 120 (standard deviation, SD). In the presence of thymic activity, the RFC level is lowered to 200 to 400/10^6 cells.

[2] = isoelectric point; assay type: physicochemical; settings: given as pH
From the text: The polypeptide hormone of this invention has an isoelectric point (pI) at pH 7.5 ± 0.1. Lack of affinity to activated charcoal indicates the absence of aromatic amino acids. Elution of the polypeptide with the void volume when chromatographed on Sephadex G-10 and retention on Sephadex G-15, G-25 and G-50 indicates a molecular weight greater than 700 and less than 3,000. Ultrafiltration through Amicon membranes indicates a molecular weight of […] to 10,000. No significant retention of the polypeptide is observed on CF-50, PM-30 and PM-10 membranes which have molecular cut-offs of 50,000; 30,000 and 10,000 respectively. Conversely no significant activity is found in UM2 and UM0.5 filtrates which have molecular weight cut-offs of 1,000 and 500 respectively. The polypeptide has the property that it binds to carboxymethyl cellulose at pH lower than 7.0 and to DEAE cellulose at a pH higher than 9.0. The polypeptide bound on carboxymethyl cellulose can be eluted with 0.12M NaCl.

| Compound | IC50 [1] [µg/mL] | isoelectric point (pI) [2] | isoelectric point (pI) ([2]; listed as thymic factor) |
| --- | --- | --- | --- |
| Cn1cnc([N+](=O)[O-])c1Sc1ncnc2nc[nH]c12 [AZ, azathioprine] | 1 (≈ 3.61 µM) | – | – |
| pyroglutamyl-Ala-Lys-Ser-Gln-Gly-Gly-Ser-Asn ([pGlu]AKSQGGSN) [polypeptide hormone, polypeptide hormone isolated from porcine blood] | – | 7.5 ± 0.1 | ~7.5 |
